The values that follow are results of earlier work, collected in paper PMC2845642.

Like-named read-outs stand apart in the source and are kept apart here.

Data set [1] has as its target CD28 (Homo sapiens) (UniProt P10747).
Data set [2] has the same target. This is another data set of the same source.

On to CD80 (from UniProt P33681), for which the Kd with CD28 (Homo sapiens) [1] is 4 µM.

Turning to CD86 (from UniProt P42081), the Kd with CD28 (Homo sapiens) [2] is 20 µM.
